Series [1] deals with T1, Pseudomonas fluorescens HPPD variant C024H11, SEQ ID NO:5 (Pseudomonas sp., UniProt P80064, G335W/P214L).
T1 construct: C024H11; […]; made in house; host or cells: E. coli (DH5alpha for library screening)
Description: biochemical.

Series [2] concerns the target T2, Pseudomonas fluorescens HPPD variant CO210d10, SEQ ID NO:9 (Pseudomonas sp., UniProt P80064, E334P/G335S/K338T).
T2 construct: CO210d10; […]; Ala + His6 directly after the start Met (N); made in house; host or cells: E. coli
Description: biochemical. To be noted: read-out: pI50 (converted).

Series [3] has as its target Pseudomonas aeruginosa HPPD Axmi305H (SEQ ID NO:57) variant Axmi305H-Evo41 (Pseudomonas aeruginosa, UniProt Q9I576, A342Q/E337P/G338W/K341A). Description: biochemical.
Description: This method is called the HGD assay.
The mutants generated by this approach were transformed into B121-DE3* cells and grown to saturation in LB media. […] By this method, active HPPD enzyme will produce a brown pigment after approximately 24 hours of growth on plates.
Series [4] has as its target T3, Pseudomonas fluorescens HPPD variant CO212f3, SEQ ID NO:10 (Pseudomonas sp., UniProt P80064, A339V/E334G/G335W).
T3 construct: CO212f3; […]; Ala + His6 directly after the start Met (N); made in house; host or cells: E. coli
Description: biochemical. The following applies: read-out: pI50 (converted).

The target of series [5] is T4, Pseudomonas fluorescens HPPD variant PfHPPDEvo36 (serine for glutamic acid at 335, serine for tryptophan at 336, threonine for lysine at 339, glutamine for alanine at 340 relative to PfG336W), SEQ ID NO:7 (Pseudomonas sp., UniProt P80064, A339Q/E334S/G335S/K338T).
T4 construct: made in house; host or cells: E. coli (DH5alpha for library screening)
The series is described as follows: biochemical.

Series [6] has as its target T5, Pseudomonas fluorescens HPPD variant PfHPPDEvo36 (serine for glutamic acid at 335, serine for tryptophan at 336, threonine for lysine at 339, glutamine for alan (Pseudomonas sp., UniProt P80064, A339Q/E334S/G335S/K338T)).
T5 construct: made in house; host or cells: E. coli (DH5alpha for library screening)
The class given is biochemical. On the procedure: The theoretical diversity of this library was 640. Screening was carried out as described in Example 3.

In series [7] the target is Pseudomonas aeruginosa (strain ATX22717) HPPD Axmi305H, native, SEQ ID NO:57 (Pseudomonas aeruginosa, UniProt Q9I576). The series is described as follows: HPPD coupling assay, Axmi305H.
Series [8] concerns the target Pseudomonas fluorescens HPPD variant PfHPPDEvo40, SEQ ID NO:8 (Pseudomonas sp., UniProt P80064, A339E/E334P/G335S). The series is described as follows: HPPD inhibition, HPLC based assay, PfHPPDEvo40.
Series [9] concerns the target T3, Pseudomonas fluorescens HPPD variant CO212f3, SEQ ID NO:10. Description: biochemical.
The subject of series [10] is HPPD. To be noted: reaction stopped after 24 min. The protocol: Kon=K1 equals the association rate constant of the […] and Koff=K−1 equals the rate constant of the enzyme-inhibitor complex dissociation. Ki defines the inhibition constant. For the determination of the specific activity of the enzymes, samples were incubated, and the reaction was stopped after 24 min. The specific activity was estimated by μg of protein.
For the determination of the specific activity of the enzymes, samples were incubated, and the reaction was stopped after 24 min. The specific activity was estimated by μg of protein.
Samples were incubated, and the reaction was stopped after 24 min. The specific activity was estimated by μg of protein.

For series [11], the system named is Soybean plants. The series is described as follows: Spray test of soybean plants expressing HPPD for tolerance to tembotrione. The class given is in vivo. The following applies: tembotrione (LAUDIS SC) 184 grams/hectare, one week after spraying; for Number of plants rated +: + = completely bleached; for Number of plants rated ++ or +++: slight tolerance or very little effect. The protocol:
Soybean plants expressing an HPPD inhibitor tolerant enzyme of the present invention, along with a gene conferring tolerance to glyphosate and a gene conferring tolerance to glufosinate, were tested for tolerance to tembotrione. A DeVries Tracker Sprayer was calibrated prior to each spraying. The chemical formulation used for tembotrione testing was LAUDIS® SC formulation. Spray tests were conducted using 184 grams/hectare; 34.5% TBT. Tolerance was evaluated one week after spraying. A rating of “+” was assigned to plants that were completely bleached in the actively growing tissue. A rating of “++” was assigned to plants having slight tolerance, i.e., the newest plant tissues had some green and are not bleached completely. A rating of “+++” was assigned to plants showing very little effect from spray, i.e., some chlorosis or very slight bleaching was present.

For series [12], the system named is E. coli cells expressing HPPDs. The series is described as follows: Plating whole E. coli cells expressing HPPDs on media containing HPPD inhibitors. Type of series: cell-based. The following applies: whole E. coli cells on plates with 250 uM inhibitor, 18 hours at 37 degrees C. The protocol: Variants were also tested by plating whole E. coli cells expressing HPPDs on media containing various HPPD inhibitors. For these experiments, DH5alpha cells containing HPPD expressing plasmids were grown in LB media+kanamycin until an OD600 nm=0.5 was reached. Serial dilutions of cells were prepared in LB media+kanamycin corresponding to OD600 values of 0.016, 0.008, 0.004, and 0.002. Ten microliters of each dilution were plated in triplicate on plates containing no HPPD inhibitor, 250 uM TBT, 250 uM DKN and 250 uM mesotrione (MST). Plates were incubated for 18 hours at 37 degrees C.

The test system of series [13] is Soybean plants. Description: Field trials of soybean events expressing HPPD, post-emergent HPPD inhibitor application, phytotoxicity. The class given is in vivo. To be noted: for events exhibiting less than or equal to 20% average phytotoxicity: T1 events, evaluated after 7 days; for events exhibiting less than or equal to 20% average phytotoxicity / events exhibiting less than or equal to 25% maximum phytotoxicity: post-emergent tembotrione 200 g ai/ha; for events exhibiting less than or equal to 25% maximum phytotoxicity: field trial United States (Minnesota); for events exhibiting less than or equal to 25% maximum phytotoxicity / events exhibiting less than or equal to 18% maximum phytotoxicity: T2; for events exhibiting less than or equal to 18% maximum phytotoxicity: field trial in Argentina, post-emergent isoxaflutole 210 g ai/ha. An excerpt:
The plants were sprayed at the v2-v3 stage with 1× glufosinate. Five days after treatment with glufosinate, the surviving plants were sprayed with 2× tembotrione, 2× mesotrione, or 2× isoxaflutole and evaluated for phytotoxicity after 7 days.

In series [14] the test system is HPPD. The following applies: Table 14.
Series [15] has as its system HPPD. On the procedure:
For Km and Vmax value determinations the initial rates of the HPPD reaction at different substrate concentrations were determined from plots of HGA formed versus time and fitted to the Michaelis-Menten equation for unireactant enzymes using the ID Business Solutions Ltd. (www.idbs.com) XLfit software suite.
In below given Table 1, “Km” (Michaelis-Menten constant) means the kinetic parameter that is used to characterize an enzyme, and it is defined as the concentration of substrate that permits half maximal rate of the reaction. Km is further defined as the substrate concentration at which the reaction rate reaches half of its maximum value (Vmax/2) where Vmax has the meaning of being the maximum velocity of the reaction.

[16] abbreviates: PfHPPDEvo36 extract titrated on 250 uM inhibitor.
Where [17] appears, read: spectrophotometric method, Table 6.

Residue numbers refer to the chain shown, from its start. Like-named read-outs stand apart in the source and are kept apart here.

The values that follow come from patent US10793872B2, “HPPD variants and methods of use” (Bayer CropScience AG, priority 2012, dated 2020).

One may read the Km as the substrate concentration at which the rate is half of its maximum.

T3 sequence (P80064 other isoform, or with tags, fused parts or gaps with the stated changes): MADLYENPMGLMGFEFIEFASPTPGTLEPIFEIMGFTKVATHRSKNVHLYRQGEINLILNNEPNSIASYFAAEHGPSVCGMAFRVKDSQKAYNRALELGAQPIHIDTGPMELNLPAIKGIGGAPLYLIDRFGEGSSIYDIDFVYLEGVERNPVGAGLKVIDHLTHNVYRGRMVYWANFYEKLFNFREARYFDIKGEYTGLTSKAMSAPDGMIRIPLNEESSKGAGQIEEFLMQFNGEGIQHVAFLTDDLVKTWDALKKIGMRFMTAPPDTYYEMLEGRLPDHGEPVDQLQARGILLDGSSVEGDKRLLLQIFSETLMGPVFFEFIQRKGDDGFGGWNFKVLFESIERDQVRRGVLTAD
T5 sequence (P80064 other isoform, or with tags, fused parts or gaps with the stated changes): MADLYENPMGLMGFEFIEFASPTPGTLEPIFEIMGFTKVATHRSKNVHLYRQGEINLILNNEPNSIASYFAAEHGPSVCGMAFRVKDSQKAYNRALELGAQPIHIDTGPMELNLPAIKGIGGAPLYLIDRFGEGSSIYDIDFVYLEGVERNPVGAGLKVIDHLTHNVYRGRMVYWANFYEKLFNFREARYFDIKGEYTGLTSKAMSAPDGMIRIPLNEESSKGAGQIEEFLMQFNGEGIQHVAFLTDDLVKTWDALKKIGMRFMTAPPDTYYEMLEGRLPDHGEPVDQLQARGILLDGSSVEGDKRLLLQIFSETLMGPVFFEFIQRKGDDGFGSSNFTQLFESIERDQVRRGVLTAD
T2 sequence (P80064 other isoform, or with tags, fused parts or gaps with the stated changes): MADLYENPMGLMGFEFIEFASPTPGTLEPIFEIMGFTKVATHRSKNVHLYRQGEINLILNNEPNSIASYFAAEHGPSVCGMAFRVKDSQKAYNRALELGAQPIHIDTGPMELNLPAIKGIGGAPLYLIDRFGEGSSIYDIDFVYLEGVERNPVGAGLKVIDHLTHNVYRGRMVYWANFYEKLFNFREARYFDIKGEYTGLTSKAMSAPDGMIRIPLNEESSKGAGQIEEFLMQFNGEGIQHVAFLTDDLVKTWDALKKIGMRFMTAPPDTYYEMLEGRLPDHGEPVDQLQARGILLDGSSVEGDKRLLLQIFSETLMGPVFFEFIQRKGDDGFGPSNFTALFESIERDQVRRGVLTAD
T1 sequence (P80064 other isoform, or with tags, fused parts or gaps with the stated changes): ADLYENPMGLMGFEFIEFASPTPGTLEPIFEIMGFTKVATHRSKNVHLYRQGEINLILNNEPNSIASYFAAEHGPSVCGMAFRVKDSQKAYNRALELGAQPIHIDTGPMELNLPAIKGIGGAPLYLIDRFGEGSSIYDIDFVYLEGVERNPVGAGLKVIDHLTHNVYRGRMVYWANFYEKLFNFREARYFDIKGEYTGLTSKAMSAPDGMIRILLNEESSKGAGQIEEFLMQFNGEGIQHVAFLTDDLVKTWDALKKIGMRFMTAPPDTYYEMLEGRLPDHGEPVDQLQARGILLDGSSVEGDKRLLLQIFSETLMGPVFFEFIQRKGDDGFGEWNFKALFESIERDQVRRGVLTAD
Pseudomonas aeruginosa HPPD Axmi305H (SEQ ID NO:57) variant Axmi305H-Evo41, sequence (Q9I576 whole entry E337P/G338W/K341A/A342Q): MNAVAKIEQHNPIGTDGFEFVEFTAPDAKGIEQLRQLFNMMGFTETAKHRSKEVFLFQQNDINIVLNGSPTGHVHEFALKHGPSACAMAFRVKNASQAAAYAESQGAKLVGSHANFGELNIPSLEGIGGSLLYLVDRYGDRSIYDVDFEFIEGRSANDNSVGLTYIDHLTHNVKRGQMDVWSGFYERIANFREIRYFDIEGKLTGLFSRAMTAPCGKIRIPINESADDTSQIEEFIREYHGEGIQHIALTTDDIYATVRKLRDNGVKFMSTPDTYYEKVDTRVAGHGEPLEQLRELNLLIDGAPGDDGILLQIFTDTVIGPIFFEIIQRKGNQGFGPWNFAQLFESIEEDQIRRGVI
Pseudomonas aeruginosa (strain ATX22717) HPPD Axmi305H, native, SEQ ID NO:57, sequence (Q9I576 whole entry): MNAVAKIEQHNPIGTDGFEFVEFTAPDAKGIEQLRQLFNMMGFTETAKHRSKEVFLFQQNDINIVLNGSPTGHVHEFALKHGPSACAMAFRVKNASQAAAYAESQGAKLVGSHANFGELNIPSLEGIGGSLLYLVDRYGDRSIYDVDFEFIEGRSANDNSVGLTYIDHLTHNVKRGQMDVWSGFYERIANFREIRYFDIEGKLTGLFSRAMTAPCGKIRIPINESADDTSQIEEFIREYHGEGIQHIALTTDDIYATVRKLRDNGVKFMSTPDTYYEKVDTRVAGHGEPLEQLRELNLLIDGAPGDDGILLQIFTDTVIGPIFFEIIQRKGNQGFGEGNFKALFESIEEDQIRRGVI

As for `CS(=O)(=O)c1cc(C(F)(F)F)ccc1C(=O)C(C#N)C(=O)C1CC1` (centres unmarked) [Diketonitrile, 2-cyano-3-cyclopropyl-1-(2-methylsulphonyl-4-trifluoromethylphenyl)-propane-1,3-dione], the IC50 is 100 µM in series [1]; 50.1 µM in series [2]; 10 µM in [3]; 20 µM in [4]; 31.6 µM in [5]. Besides, in series [6], the “improved tolerance compared to PfG336W” value worked out at 16 ×. Further, the “improved tolerance compared to PfHPPDEvo33” value in [6] stood at 4 ×.
As for `CS(=O)(=O)c1ccc(C(=O)C2C(=O)CCCC2=O)c([N+](=O)[O-])c1` [Mesotrione, 2-[4-(methylsulfonyl)-2-nitrobenzoyl]-1,3-cyclohexanedione], the IC50 is 0.2 µM in series [7], 2 µM in series [2] and 3.98 µM in series [4].
As to `CS(=O)(=O)c1ccc(C(=O)C2C(=O)CCCC2=O)c(Cl)c1COCC(F)(F)F` [Tembotrione, 2-[2-chloro-4-(methylsulfonyl)-3-[(2,2,2,-tri-fluoroethoxy)methyl]benzoyl]-1,3-cyclo-hexanedione], the values for the IC50 in series [1], in series [8] and in series [9] were 15.8 µM, 10 µM and 15.8 µM, respectively. For the same molecule, in [6] (setting [16]), the “improved tolerance compared to PfG336W” value worked out at 16 ×. Further, the “improved tolerance compared to PfHPPDEvo33” value in series [6] (setting [16]) came to 4 ×.

B1: PfHPPDEvo40: HPPD variant SEQ ID NO:8 (protein)
chain: MADLYENPMGLMGFEFIEFASPTPGTLEPIFEIMGFTKVATHRSKNVHLYRQGEINLILNNEPNSIASYFAAEHGPSVCGMAFRVKDSQKAYNRALELGAQPIHIDTGPMELNLPAIKGIGGAPLYLIDRFGEGSSIYDIDFVYLEGVERNPVGAGLKVIDHLTHNVYRGRMVYWANFYEKLFNFREARYFDIKGEYTGLTSKAMSAPDGMIRIPLNEESSKGAGQIEEFLMQFNGEGIQHVAFLTDDLVKTWDALKKIGMRFMTAPPDTYYEMLEGRLPDHGEPVDQLQARGILLDGSSVEGDKRLLLQIFSETLMGPVFFEFIQRKGDDGFGPSNFKELFESIERDQVRRGVLTAD
modifications: HPPD mutant - PfHPPDEvo40
For B1, in the series on HPPD [10] (setting [17]), the Specific activity is recorded as 0.42 Delta Absorbance/24 min/μg pro. In addition, in the series with Soybean plants [11], the “Percent ++ or +++” value is reported as 31.4%, the “Number of plants rated +” value turned out to be 60 and the “Number of plants rated ++ or +++” value was found to be 65. Also, in series [12], the “tolerance to TBT and MST compared to PfG336W” value is on record as “improved tolerance”.

B2: PfG336W: Pseudomonas fluorescens HPPD mutant, glycine at position 336 replaced by tryptophan, SEQ ID NO:2 (protein)
chain: B1 chain with P335E, S336W, E340A
modifications: HPPD mutant - PfG336W
For the molecule B2, in the series on Soybean plants [13], the “events exhibiting less than or equal to 20% average phytotoxicity” value is reported as 0 out of 18, the “events exhibiting less than or equal to 25% maximum phytotoxicity” value is on record as 1 out of 11 and the “events exhibiting less than or equal to 18% maximum phytotoxicity” value is reported as 1 out of 3. The “Specific activity” value with HPPD [10] (Table 1) was 0.40 ΔE/24 min μg Protein. Also, the Specific activity with HPPD [10] (setting [17]) is 0.4 Delta Absorbance/24 min/μg pro. In the series with Soybean plants [11], the “Percent ++ or +++” value is listed as 7.12%, the “Number of plants rated +” value was determined as 811 and the “Number of plants rated ++ or +++” value was found to be 160.

B3: PfHPPDEvo41: HPPD variant SEQ ID NO:16 (protein)
chain: B1 chain with S336W, K339A, E340Q
modifications: HPPD mutant - PfHPPDEvo41
Take B3: in the series on Soybean plants [13], the “events exhibiting less than or equal to 20% average phytotoxicity” value was “Nine out of 18”, the “events exhibiting less than or equal to 25% maximum phytotoxicity” value was 7 out of 7 and the “events exhibiting less than or equal to 18% maximum phytotoxicity” value is 5 out of 10. Further, the Km in the series with HPPD [14] amounted to 336 µM. Further, the Specific activity in the series on HPPD [10] (setting [17]) was 0.44 Delta Absorbance/24 min/μg pro. The Km in the series with HPPD [15] (Table 9, same values as Table 5) came to 336 µM. Also, the Michaelis constant (Km) in the series on HPPD [15] (read-out: HPP Km, substrate HPP, Table 5) turned out to be 336 µM. In addition, the “HPP Kcat” value in the series with HPPD [15] (substrate HPP, Table 5) came out at 1.1 s⁻¹. Also, in the series with Soybean plants [11], the “Percent ++ or +++” value was determined as 32.75%, the “Number of plants rated +” value is 412 and the “Number of plants rated ++ or +++” value stood at 279. For the same molecule, the “tolerance to TBT and MST compared to PfG336W” value in series [12] was “improved tolerance”.

B4: PfHPPDEvo36: HPPD variant SEQ ID NO:7; 335 serine, 336 serine, 339 threonine, 340 glutamine relative to PfG336W (protein)
chain: B1 chain with P335S, K339T, E340Q
modifications: HPPD mutant - PfHPPDEvo36
As to B4, the Specific activity with HPPD [10] (setting [17]) is recorded as 0.82 Delta Absorbance/24 min/μg pro. In the series with Soybean plants [11], the “Percent ++ or +++” value stood at 20.45%, the “Number of plants rated +” value was determined as 47 and the “Number of plants rated ++ or +++” value was found to be 18.
